Data from PMC11078986, “Structural basis and synergism of ATP and Na^+ activation in bacterial K^+ uptake system KtrAB” (Nature Communications, 2024).

T1: BsKtrA (Bacillus subtilis, UniProt O32080)
T1 construct: gene ktrA; tag-less BsKtrA (octamer) in the BsKtrAB complex; with BsKtrB
T1 sequence (O32080 1-222): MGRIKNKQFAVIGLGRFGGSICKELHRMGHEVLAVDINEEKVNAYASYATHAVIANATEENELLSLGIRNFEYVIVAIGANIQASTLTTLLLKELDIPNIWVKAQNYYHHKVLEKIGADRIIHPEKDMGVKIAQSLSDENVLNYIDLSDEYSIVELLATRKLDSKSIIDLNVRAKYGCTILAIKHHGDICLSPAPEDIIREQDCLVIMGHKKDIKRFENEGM
T1 sequence (O32081 1-445 partner): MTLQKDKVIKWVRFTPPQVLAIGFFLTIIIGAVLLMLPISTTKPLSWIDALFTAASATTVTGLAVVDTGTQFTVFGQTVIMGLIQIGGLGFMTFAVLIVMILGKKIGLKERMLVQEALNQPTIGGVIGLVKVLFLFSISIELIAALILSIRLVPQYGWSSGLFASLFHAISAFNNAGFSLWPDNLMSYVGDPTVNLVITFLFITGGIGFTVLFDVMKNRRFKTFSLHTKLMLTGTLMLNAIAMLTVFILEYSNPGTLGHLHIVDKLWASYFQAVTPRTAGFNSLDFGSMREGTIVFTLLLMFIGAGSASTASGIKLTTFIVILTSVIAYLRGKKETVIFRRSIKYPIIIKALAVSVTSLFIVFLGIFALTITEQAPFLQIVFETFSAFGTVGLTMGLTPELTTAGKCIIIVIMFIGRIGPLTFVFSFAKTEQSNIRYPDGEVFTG

B1: KtrB from Bacillus subtilis (BsKtrB) (natural protein)
chain: T1 sequence (O32081 1-445 partner)
notes: KtrB, transmembrane K+ permeation subunit of the K+ uptake system KtrAB, Bacillus subtilis; Membrane protein dimer in detergent (DDM, or 6-cyclohexyl-1-hexyl-beta-D-maltoside for cryo-EM); source: E. coli C43 (DE3), purified (DDM extraction, Ni-NTA, TEV cleavage, second Ni-NTA, SEC); not shown: His tag, N-terminal, cleaved
B2: KtrA from Bacillus subtilis (BsKtrA) (natural protein)
chain: T1 sequence (O32080 1-222)
notes: KtrA, regulatory RCK subunit of the K+ uptake system KtrAB, Bacillus subtilis; tag-less; Octameric ring (tetramer of homodimers); Used with ATP, with ADP or as apo protein; also called ATP-BsKtrA; ADP-BsKtrA; source: E. coli BL21(DE3), purified (anion exchange, N6-hexyl-ATP agarose, dialysis, SEC)

Key:
[1] = target: T1, BsKtrA; assay: cryo-EM structure of ADP-BsKtrAB at […] Å (Structure III); type: binding
[2] = target: the molecule itself; assay: cryo-EM structure; ATP-BsKtrAB (Structures I, II, IIa, IIb); BsKtrA and BsKtrB mixed 2:1 with 1 mM ATP, complex taken from SEC; Cryo-EM Buffer (20 mM Tris-HCl pH 8.0, 70 mM NaCl, 30 mM KCl, 0.75 mM 6-cyclohexyl-1-hexyl-beta-D-maltoside) with 1 mM ATP and 2 mM MgCl2, or 1 mM ATP, 2 mM EDTA and 1 mM EGTA; KtrB2A8B2 assembly
[3] = target: B1; assay: as above; settings: both partners purified

Nc1ncnc2c1ncn2[C@@H]1O[C@H](COP(=O)(O)OP(=O)(O)O)[C@@H](O)[C@H]1O [ADP]
cryo-EM structure of ADP-BsKtrAB at 2.8 Å (Structure III) [1]: ATP and ADP share the same binding site located at the intra-dimer interface of KtrA RCK_N subdomains

B1
stoichiometry N [2]: 2

B2
binding result [3]: binds | stoichiometry N [2]: 8
